The results in this text go back to patent US20260041793A1, “VIRAL VECTOR” (University of Sheffield, priority 2022, published 2026).

The subject of the data set is SRSF1. Put plainly: Western immunoblotting of SRSF1 in human cells co-transfected with scAAV plasmids and C9ORF72-repeat reporter. It counts as cell-based. The note with it: co-transfected with sense or antisense C9ORF72-repeat reporter, FIG. 4. On the technique in general: A western blot detects proteins with antibodies after separation by electrophoresis.

B1: GGAAGAUCUCGAUCUCGAAGC UUCAAGAGA GCUUCGAGAUCGAGAUCUUCC (nucleic acid)
chain 1: GGAAGATCTCGATCTCGAAGC
chain 2: GCUUCGAGAUCGAGAUCUUCC
chain 3: GGAAGAUCUCGAUCUCGAAGCUUCAAGAGAGCUUCGAGAUCGAGAUCUUCC
modifications: expressed or natural sequence; chain 1: target site or template, no part of the molecule
notes: shRNA targeting SRSF1
On to B1, for which the “depletion of SRSF1” value was “efficient depletion of SRSF1”.

B2: GGGCCCAGAAGUCCAAGUUAU UUCAAGAGA AUAACUUGGACUUCUGGGCCC (nucleic acid)
chain 1: GGGCCCAGAAGTCCAAGTTAT
chain 2: AUAACUUGGACUUCUGGGCCC
chain 3: GGGCCCAGAAGUCCAAGUUAUUUCAAGAGAAUAACUUGGACUUCUGGGCCC
modifications: expressed or natural sequence; chain 1: target site or template, no part of the molecule
notes: shRNA targeting SRSF1
For B2, the “depletion of SRSF1” value is “efficient depletion of SRSF1”.

B3: GCAGAGGAUCACCACGCUAUU UUCAAGAGA AAUAGCGUGGUGAUCCUCUGC (nucleic acid)
chain 1: GCAGAGGATCACCACGCTATT
chain 2: AAUAGCGUGGUGAUCCUCUGC
chain 3: GCAGAGGAUCACCACGCUAUUUUCAAGAGAAAUAGCGUGGUGAUCCUCUGC
modifications: expressed or natural sequence; chain 1: target site or template, no part of the molecule
notes: shRNA targeting SRSF1
Take B3: the “depletion of SRSF1” value is listed as “efficient depletion of SRSF1”.
